According to patent publication US20090136450A1, “THERAPY FOR NEUROLOGICAL DISEASES” (priority 2005, published 2009):

System: Experimental Autoimmune Encephalomyelitis (EAE)
Experiment: chronic EAE model in C57BY6 mice, clinical score
Type: in vivo
Conditions: chronic EAE in C57BY6 mice (MOG/CFA + B. pertussis toxin); subcutaneous daily treatment, 20,000 U/mouse, started at onset of the disease, 28 to 30 days
Experimental: The most widely used animal model for multiple sclerosis is Experimental Autoimmune Encephalomyelitis (EAE), based on shared histopathological and clinical features with the human disease:
The chronic EAE model in C57BY6 mice shares some common traits with the primary progressive (PP) or secondary progressive (SP) forms of MS. Mice are immunized in both flanks at day 0 and day 7 with 200 μg s.c. of myelin oligodendrocyte glycoprotein (MOG) in Complete Freund's Adjuvant (CFA) and followed by two injections (on day 0 and day 2) with 500 ng i.p. of B. pertussis toxin.
Groups are composed of 10 to 13 EAE mice. Clinical scores, overall health status, body weight and mortality are recorded daily. Starting from day 7 the animals are individually examined for the presence of paralysis by means of a clinical score: 0=no sign of disease, 1=tail paralysis, 2=tail paralysis+hindlimb weakness or partial hindlimb paralysis, 3=tail paralysis+complete hindlimb paralysis, 4=tail paralysis+hindlimb paralysis+weakness or partial paralysis of forelimbs, 5=moribund or dead.
Starting from day 10-12, most animals are becoming increasingly paralysed.
Therapeutic treatments are started at the onset of the disease, thus once the disease is already established but still progressing and continued for 28 to 30 days. […]

B1: mIFNβ: mIFNβ (Serono Pharmaceutical Research Institute, Geneva), interferon beta given to EAE mice (protein, UniProt P01575 22-182, looked up)
Interferon beta: INYKQLQLQERTNIRKCQELLEQLNGKINLTYRADFKIPMEMTEKMQKSYTAFAIQEMLQNVFLVFRNNFSSTGWNETIVVRLLDELHQQTVFLKTVLEEKQEERLTWEMSSTALHLKSYYWRVQRYLKLMKYNSYAWMVVRAEIFRNFLIIRRLTRNFQN
Question: For B1, which “clinical output (severity of the disease, paralysis clinical score)” value is on record?
Answer: The value was “significantly reducing the severity of the disease from complete hindlimb to partial hindlimb paralysis”.
